Data: PMC8789049, “Regulation of AR mRNA translation in response to acute AR pathway inhibition”

T1: YTHDF3 (UniProt Q7Z739 1-585)
T1 sequence: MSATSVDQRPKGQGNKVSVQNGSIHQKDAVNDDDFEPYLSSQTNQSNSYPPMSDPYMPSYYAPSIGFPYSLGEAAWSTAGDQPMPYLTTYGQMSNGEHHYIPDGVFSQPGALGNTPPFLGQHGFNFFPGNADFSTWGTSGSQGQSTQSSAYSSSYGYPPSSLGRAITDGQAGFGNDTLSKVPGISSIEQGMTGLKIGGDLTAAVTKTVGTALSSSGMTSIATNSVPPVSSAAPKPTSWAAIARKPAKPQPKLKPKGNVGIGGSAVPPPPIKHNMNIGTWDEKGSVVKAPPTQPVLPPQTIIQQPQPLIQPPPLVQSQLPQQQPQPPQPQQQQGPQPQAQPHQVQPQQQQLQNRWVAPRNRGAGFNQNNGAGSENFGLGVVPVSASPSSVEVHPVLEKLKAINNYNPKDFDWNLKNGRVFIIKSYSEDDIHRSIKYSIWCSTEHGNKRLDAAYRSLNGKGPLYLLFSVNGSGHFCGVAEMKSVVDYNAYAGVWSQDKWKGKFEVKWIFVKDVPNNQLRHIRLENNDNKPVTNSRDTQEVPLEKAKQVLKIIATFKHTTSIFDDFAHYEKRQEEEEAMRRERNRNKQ


Assays:
G3BP1 = G3BP1 (UniProt Q13283 1-466); experiment: EMSA; REMSA: 6.25 nM biotin probe, 100 mM HEPES pH 7.3, 200 mM KCl, 10 mM MgCl2, 10 mM DTT, 5% glycerol, 2 ug tRNA, 20 ul, 30 min, temperature not stated; 6% native PAGE in 0.5x TBE; details: protein: recombinant; tags: His-tag (pET-28a(+)-TEV); chain copies: 2; label: biotin
Chain of G3BP1 (Q13283 whole entry): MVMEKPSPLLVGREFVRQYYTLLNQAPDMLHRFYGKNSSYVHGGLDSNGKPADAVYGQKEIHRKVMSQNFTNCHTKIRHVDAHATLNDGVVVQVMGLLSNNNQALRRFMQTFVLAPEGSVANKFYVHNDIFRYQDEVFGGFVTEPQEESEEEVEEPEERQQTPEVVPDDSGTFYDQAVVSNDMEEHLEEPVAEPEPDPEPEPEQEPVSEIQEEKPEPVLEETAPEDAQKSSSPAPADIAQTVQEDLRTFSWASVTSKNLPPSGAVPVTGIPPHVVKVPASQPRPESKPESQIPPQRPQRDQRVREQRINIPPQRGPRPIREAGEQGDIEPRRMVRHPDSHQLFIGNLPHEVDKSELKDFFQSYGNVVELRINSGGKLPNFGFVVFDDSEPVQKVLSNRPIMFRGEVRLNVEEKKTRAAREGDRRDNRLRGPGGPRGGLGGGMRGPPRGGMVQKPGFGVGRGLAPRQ

YTHDF3 = biological target: T1, YTHDF3; experiment: as above; details: protein: recombinant; tags: His-tag (pET-28a(+)-TEV); label: biotin

Row | Binder | binding result (G3BP1) | binding result (YTHDF3)
1 | AACUCAAUGGAACUGACUGAGAUUUACCAC (ssRNA) [8953-UM] | binds | no binding
2 | GGAUAUUUUGAAGGACUGUCAUAUAUCUUU (ssRNA, m6A in GGm6ACU) [7301-m6A] | – | binds
3 | GGAUAUUUUGAAGGACUGUCAUAUAUCUUU (ssRNA) [7301-UM] | binds | no binding
4 | CCUGUGAGGGACUGGCCACUCAGACCCACU (ssRNA) [6908-UM] | binds | no binding
5 | AACUCAAUGGAACUGACUGAGAUUUACCAC (ssRNA, m6A in GAm6ACU) [8953-m6A] | – | binds
6 | CCUGUGAGGGACUGGCCACUCAGACCCACU (ssRNA, m6A in GGm6ACU) [6908-m6A] | – | binds
